Measurements: patent US9902783B2, “Antibodies and pharmaceutical compositions containing same useful for inhibiting activity of metalloproteins” (Yeda Research and Development Co. Ltd., priority 2007, dated 2018)

Tests used:
[1] = cross reactivity, competitive ELISA and immuno affinity assay, vitamin; assay type: binding
From the text: (§1) The selectivity of anti CoTCPP and anti Imisdp was further challenged, by testing their cross reactivity with non related zinc dependent enzymes—Carbonic Anhydrase (CA) and brockii alcohol dehydrogenase (TbADH). Similar to active MMPs CA contains a zinc ion that is tetrahedraly coordinated to three histidine residues and a water molecule, TbADH contains a catalytic zinc ion that is tetraheadrally coordinated to four different amino acid residues, histidine, cysteine, aspartate and glutamate. […] Anti CoTCPP mAb was also tested for its cross reactivity with related physiological porphyrins such as the Heme group within Myoglobin and Hemoglobin and vitamin.
Carbonic anhydrase, and alcohol dehydrogenase all have rather buried active sites, similarly, the porphyrin moiety in Myoglobin and Hemoglobin is not exposed. Vitamin B 12 contains metal at the center of planer […] structure yet the axial ligands may interfere with the binding of the mAb.

MMP-2 = MMP-2 (Mus musculus, UniProt P33434); test: kinetic assay with fluorogenic peptide substrate, MMP-2; assay type: biochemical, human
Chain of MMP-2 (P33434 110-467): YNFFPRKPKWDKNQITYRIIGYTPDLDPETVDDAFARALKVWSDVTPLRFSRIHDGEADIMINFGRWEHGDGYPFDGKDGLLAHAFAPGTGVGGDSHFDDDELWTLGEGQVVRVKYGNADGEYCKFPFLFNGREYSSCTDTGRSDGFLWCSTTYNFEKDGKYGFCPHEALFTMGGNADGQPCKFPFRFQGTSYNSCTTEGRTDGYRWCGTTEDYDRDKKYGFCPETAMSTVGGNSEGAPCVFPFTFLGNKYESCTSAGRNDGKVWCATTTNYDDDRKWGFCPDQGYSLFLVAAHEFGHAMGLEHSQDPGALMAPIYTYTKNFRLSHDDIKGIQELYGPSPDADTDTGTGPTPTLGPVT

TACE = TACE (Homo sapiens, UniProt P78536); test: immuno affinity binding assay, TACE; details: purified enzyme
Chain of TACE (P78536 215-824, species assumed): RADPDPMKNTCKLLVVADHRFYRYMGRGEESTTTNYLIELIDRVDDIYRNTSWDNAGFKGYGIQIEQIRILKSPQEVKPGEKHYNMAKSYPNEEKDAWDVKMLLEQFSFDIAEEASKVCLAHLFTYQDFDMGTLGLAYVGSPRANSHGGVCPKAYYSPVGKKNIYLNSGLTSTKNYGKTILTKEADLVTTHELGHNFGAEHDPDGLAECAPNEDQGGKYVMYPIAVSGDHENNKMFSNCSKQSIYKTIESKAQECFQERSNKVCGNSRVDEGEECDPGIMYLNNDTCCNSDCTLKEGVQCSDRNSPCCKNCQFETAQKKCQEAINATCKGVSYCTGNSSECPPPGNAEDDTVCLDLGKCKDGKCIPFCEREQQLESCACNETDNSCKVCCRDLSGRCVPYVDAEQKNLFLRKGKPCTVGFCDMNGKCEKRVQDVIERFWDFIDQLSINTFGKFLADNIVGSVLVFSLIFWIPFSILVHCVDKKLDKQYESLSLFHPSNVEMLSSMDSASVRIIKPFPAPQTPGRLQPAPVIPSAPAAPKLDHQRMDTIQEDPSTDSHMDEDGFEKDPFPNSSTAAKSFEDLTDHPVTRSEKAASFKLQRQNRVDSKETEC
Experimental: (§2) MAbs (10 μg) were incubated with anti mouse IgG Agarose beads (Sigma) overnight at 4° C. in PBS. After washing unbound antibody, purified Pro-MMP-2, Pro-MMP-9 MMP-2 catalytic domain, MT1 catalytic domain or TACE (2 μg), were added following 2 h incubation at RT. The beads were collected by centrifugation and washed three times with PBS. The proteins that remained bound to the beads were eluted with SDS sample buffer, fractionated by SDS-PAGE, and detected by staining with Coomassie blue.

MT1 catalytic domain = test: immuno affinity binding assay, MT1-MMP; details: purified enzyme
Experimental: as §2

[2] = biological target: T1, Heme group within Myoglobin (Homo sapiens, UniProt P02144); test: cross reactivity, competitive ELISA and immuno affinity assay, Myoglobin; assay type: binding
T1 sequence (P02144 1-154): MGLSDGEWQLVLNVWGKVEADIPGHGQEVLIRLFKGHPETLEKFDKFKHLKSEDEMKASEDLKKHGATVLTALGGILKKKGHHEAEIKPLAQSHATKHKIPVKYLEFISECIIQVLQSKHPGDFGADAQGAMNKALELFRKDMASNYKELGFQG
From the text: as §1

Pro-MMP-2 = biological target: T2, Pro-MMP-2 (Homo sapiens, UniProt P08253); assay type: binding
T2 sequence (P08253 30-660 limits assumed): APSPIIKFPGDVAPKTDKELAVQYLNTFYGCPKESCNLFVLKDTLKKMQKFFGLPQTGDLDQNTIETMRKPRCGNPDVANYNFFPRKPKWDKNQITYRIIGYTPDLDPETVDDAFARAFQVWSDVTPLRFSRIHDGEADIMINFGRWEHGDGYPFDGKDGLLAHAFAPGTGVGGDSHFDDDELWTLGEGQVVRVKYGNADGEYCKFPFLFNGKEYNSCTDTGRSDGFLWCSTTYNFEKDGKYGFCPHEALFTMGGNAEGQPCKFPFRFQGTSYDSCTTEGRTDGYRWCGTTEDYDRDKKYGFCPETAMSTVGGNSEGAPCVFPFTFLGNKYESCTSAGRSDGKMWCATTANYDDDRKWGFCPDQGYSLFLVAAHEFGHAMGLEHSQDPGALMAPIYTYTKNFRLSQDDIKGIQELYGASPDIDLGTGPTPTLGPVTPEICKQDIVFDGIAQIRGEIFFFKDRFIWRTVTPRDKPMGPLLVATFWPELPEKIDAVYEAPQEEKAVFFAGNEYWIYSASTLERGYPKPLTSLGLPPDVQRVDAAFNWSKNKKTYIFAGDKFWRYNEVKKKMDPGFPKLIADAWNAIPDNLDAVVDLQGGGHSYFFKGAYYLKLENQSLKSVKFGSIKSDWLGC

Pro-MMP-9 = Pro-MMP-9 (Homo sapiens, UniProt P14780); assay type: binding
Chain of Pro-MMP-9 (P14780 20-707 limits assumed): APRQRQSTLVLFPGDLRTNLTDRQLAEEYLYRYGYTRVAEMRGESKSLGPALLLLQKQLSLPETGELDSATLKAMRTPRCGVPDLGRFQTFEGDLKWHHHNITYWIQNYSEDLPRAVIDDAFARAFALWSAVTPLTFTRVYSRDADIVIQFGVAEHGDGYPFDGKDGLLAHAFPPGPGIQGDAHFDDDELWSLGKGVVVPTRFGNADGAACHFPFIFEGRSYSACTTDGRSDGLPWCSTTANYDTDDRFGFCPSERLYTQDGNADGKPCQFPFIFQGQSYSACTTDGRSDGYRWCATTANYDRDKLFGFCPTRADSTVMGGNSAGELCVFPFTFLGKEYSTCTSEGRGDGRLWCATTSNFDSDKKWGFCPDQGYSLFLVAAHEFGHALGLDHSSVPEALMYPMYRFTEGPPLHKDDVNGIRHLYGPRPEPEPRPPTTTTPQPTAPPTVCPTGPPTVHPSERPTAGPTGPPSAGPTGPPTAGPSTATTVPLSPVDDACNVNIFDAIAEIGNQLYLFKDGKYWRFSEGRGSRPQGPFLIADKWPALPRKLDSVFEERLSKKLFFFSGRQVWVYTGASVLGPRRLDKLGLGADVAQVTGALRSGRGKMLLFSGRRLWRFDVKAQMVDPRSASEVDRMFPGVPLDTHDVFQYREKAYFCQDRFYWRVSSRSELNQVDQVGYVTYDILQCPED

MMP9 = MMP9 (Homo sapiens, UniProt P14780); test: cleavage of mAb by MMP-9 on overnight incubation; details: overnight incubations with 30 μM MMP9
Chain of MMP9 (P14780 94-707): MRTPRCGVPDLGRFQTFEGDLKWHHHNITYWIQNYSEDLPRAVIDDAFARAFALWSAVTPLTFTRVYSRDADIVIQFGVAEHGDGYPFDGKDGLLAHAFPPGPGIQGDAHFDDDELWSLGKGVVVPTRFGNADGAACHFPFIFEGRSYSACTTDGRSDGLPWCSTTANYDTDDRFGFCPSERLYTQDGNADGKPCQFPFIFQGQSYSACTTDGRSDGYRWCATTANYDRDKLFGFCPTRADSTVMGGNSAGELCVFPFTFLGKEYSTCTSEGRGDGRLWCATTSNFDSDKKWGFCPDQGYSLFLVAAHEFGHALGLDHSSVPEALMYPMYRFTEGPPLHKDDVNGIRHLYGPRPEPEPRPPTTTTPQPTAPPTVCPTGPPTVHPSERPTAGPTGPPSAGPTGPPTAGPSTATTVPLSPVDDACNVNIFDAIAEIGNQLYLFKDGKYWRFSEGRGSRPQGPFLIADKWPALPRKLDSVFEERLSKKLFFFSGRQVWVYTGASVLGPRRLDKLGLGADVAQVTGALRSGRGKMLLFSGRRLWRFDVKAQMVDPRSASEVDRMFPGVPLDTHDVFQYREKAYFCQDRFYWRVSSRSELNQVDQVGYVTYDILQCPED

[3] = biological target: T3, MMP-2 catalytic domain (MMP-2cat) (Mus musculus, UniProt P33434); test: immuno affinity pull down of MMP-2 catalytic domain; assay type: binding; details: SDS-PAGE
T3 construct: NP_032636.1; made in house; host or cells: BL-21 cells (E. coli)
T3 sequence (P33434 110-467): as the sequence (P33434 110-467) above
Experimental: FIGS. 3A-3C are western blot images showing the ability of mouse IgG-Agarose immobilized mAbs to pull down recombinant MMP-2 catalytic domain (MMP-2cat) or Pro-MMP-2 and Pro-MMP-9 from solution. Antibodies used for each experiment are 6C6, 13E11, and 13E15. FIG. 3A—MMP-2cat (2 μg) was incubated with anti-mouse IgG-Agarose (cntl, lane1) or anti CoTCPP, ZnTCPP and Imisdp mAb (10 μg)-anti-mouse IgG-Agarose for 2 hr at 20° C., immunoprecipitates (lane 2, 3, 5) were centrifuged and washed three times, separated on SDS/PAGE gel and visualized by Coomassie-staining. […]
FIGS. 11A-11D are photographs and models illustrating that 6C6 binds only the active conformation of MMP9 and MMP2. […] FIGS. 11B,C: 6C6 mAb immobilized to protein A beads was analyzed for its ability to pull down ProMMP2, ProMMP9, or MMP2 catalytic fragment (lacking the hemopexin and pro domains) from solution. […]
MAbs (10 μg) were incubated with anti mouse IgG Agarose beads (Sigma) overnight at 4° C. in PBS. […] The proteins that remained bound to the beads were eluted with SDS sample buffer, fractionated by SDS-PAGE, and detected by staining with Coomassie blue.

Molecule	cross reactivity with vitamin [1]	mode of inhibition of MMP-2 (MMP-2)	binding to TACE (TACE)	binding to MT1-MMP (MT1 catalytic domain)	cross reactivity with Myoglobin [2]	binding to Pro-MMP-2 (Pro-MMP-2)	binding to Pro-MMP-9 (Pro-MMP-9)	cleavage of mAb by MMP-9 (MMP9)	binding to MMP-2 catalytic domain [3]
13E11: monoclonal antibody, IgG2b, raised against the hapten CoTCPP (antibody, V domains shown, 13E11 mAb heavy chain; 13E11 mAb light chain, monoclonal antibody, IgG2b, raised against the hapten CoTCPP) VH: EGGGLVQPGGSRKLSCAASGFTFTSFGMHWVRQAPEKGLEWVAYISSGNEIIYYADTVKGRFTISRDNPKNTLFLQMTSLRSEDTAMYYCARNYYRYGFYVMDYWGQG VL: EIVVTQSPAILSASPGEKVTMTCRASSSVSYMHWYQQKPGSSPKPWIYATSNELASGVPARFSGSGSGTSYSLTISRVEAEDAATYYCQQWISNPLTFGAG	No cross was detected	competitive inhibitor	no binding was detected	no binding was detected	No cross was detected				
6C6: monoclonal antibody, IgG2a, raised against the hapten Imisdp; MMP-2 and MMP-9 inhibitory; SEQ ID NO: 1 (protein, 6c6 mAb light chain) CMETTQTPLSLPVSLGDQASISCRSSQSIVHSNGNTFLEWYLQKPGQSPKLLIYKVSNCRFSGVPDRFSGSGSGTDFTLKISRVEAEDLGVYYCFQASHVPPTFGGG						did not bind	did not bind	not cleaved	formation of a specific complex
